Patent publication US20250115926A1, “DEREGULATED DHS AND TYRA ENZYMES OF GRASSES ENABLE EFFICIENT PRODUCTION OF BOTH TYROSINE AND PHENYLALANINE” (Wisconsin Alumni Research Foundation, priority 2023, published 2025)

What was measured:
[1] = tested on: Nicotiana benthamiana leaves; assay: Transient expression of TyrA genes in Nicotiana benthamiana leaves (CaMV 35S promoter), tyrosine by HPLC; type: in vivo; settings: infiltrated leaves, 72 hours
Method: Agrobacterium tumefaciens strain GV3101 transformed with the plant expression constructs were grown at 28° C. for 24 to 36 hours in 10 mL of LB liquid media containing the corresponding antibiotics. The saturated cultures were spun down at 3,000 g for 5 minutes at room temperature and washed twice with 3 mL of induction media (IM; 10 mM MES [2-(N-morpholino) ethanesulfonic acid] buffer pH 5.6, 0.5% glucose, 2 mM NaH2PO4, 20 mM NH4Cl, 1 mM MgSO4, 2 mM KCl, 0.1 mM CaCl2), 0.01 mM FeSO4, and 0.2 mM acetosyringone). After washing, bacteria cultures were incubated in IM for 2 to 3 hours at room temperature in the dark, pelleted at 3000 g for 5 minutes, and resuspended into 3 mL of 10 mM MES buffer pH 5.6 with 0.2 mM acetosyringone. OD600nm was adjusted to a final density of 0.25 units for pAGM4673::TyrA (FIG. 3F) and pICH47822::DHS (FIG. 5A) infiltration, or 0.5 units for pAGM4673::TyrA-DHS co-expression constructs (FIG. 5B) using 10 mM MES buffer pH 5.6 with 0.2 mM acetosyringone. For infiltration of pICH47822::DHS constructs, the Agrobacterium suspensions were adjusted to OD600nm=0.5 and mixed with an equal volume of a suspension of an Agrobacterium clone transformed with pICH4780::p19 under control of the Arabidopsis ubiquitin ligase promoter adjusted to OD600nm=0.5, resulting in a final mixture of 0.25 OD600nm units for each construct. […] Nicotiana benthamiana plants of around 4-weeks-old were infiltrated close to the end of the light period into four different spots per plant, distributed into two leaves at two infiltrations per leaf, with each individual spot corresponding with a different construct/treatment. […]
The infiltrated leaf areas, excluding the midrib and major veins, were harvested at 72 hours after infiltration and frozen immediately in liquid nitrogen. […] A tyrosine peak was detected at the retention time of ˜3.5 minutes using fluorescence detection mode (excitation wavelength 274 nm, emission wavelength 303 nm) and quantified with an authentic tyrosine standard (Alfa Acsar, catalog number AAA1114118). […]

[2] = TyrA feedback inhibition by tyrosine (recombinant enzymes); type: biochemical; settings: FIG. 12
[3] = tested on: Nicotiana benthamiana leaves; assay: Co-expression of BdTyrA and BdDHS enzymes in Nicotiana benthamiana leaves; type: in vivo
From the text: Gene expression data in Brachypodium (FIG. 4B) indicate that BdTyrA1 is co-expressed with BdDHS1b and BdPTAL in the internodes, where we detected a high rate of tyrosine production (FIG. 2). […] We therefore hypothesized that BdTyrA1 and BdDHS1b may co-operate in the high production of tyrosine and phenylalanine observed in grass tissues. To test this possibility, we co-expressed in planta different combinations of BdTyrA enzymes and BdDHS enzymes and measured the impact on phenylalanine and tyrosine levels. To this end, we took advantage of the Golden Gate modular cloning system^52 and assembled the BdTyrA and BdDHS expression cassettes into the same vector backbone (FIG. 13). To avoid causing a strong over-expression, BdTyrA and BdDHS were driven by RuBisCO small subunit promoters from Arabidopsis (PAtRbcS3B) and tomato (PSIRbcS3A), respectively (FIG. 13)^51. […] Similarly, no significant additive effects were observed upon co-expression of the BdTyrA enzymes with feedback-regulated BdDHS2 (FIG. 5B).
Agrobacterium tumefaciens strain GV3101 transformed with the plant expression constructs were grown at 28° C. for 24 to 36 hours in 10 mL of LB liquid media containing the corresponding antibiotics. […]
Aromatic amino acids and shikimate were detected using a Vanquish Horizon Binary UHPLC (Thermo Scientific) coupled to a Q Exactive mass spectrometer (Thermo Scientific). […]

Molecule | tyrosine content compared to the GUS control [1] | type of inhibition by tyrosine with respect to arogenate [2] | tyrosine levels relative to the tdTom+YPet control ([3]; RuBisCO small subunit promoters (FIG. 5B)) [times] | decrease of phenylalanine levels compared to YPet with tdTom control ([3]; expressed with tdTom control (FIG. 5B)) [times]
SbTyrAnc: non-canonical TyrA enzyme of Sorghum bicolor, SEQ ID NO: 43 (protein, Sorghum bicolor) MASSLRHFAGLGCFPAVASTSGSTCCLRRYTPNFCAFVALRPISPPAATATATAKALTSPSPVEQHLQAVVPCHGISDPPAASSAAAVPAAPLRVGIVGFGNFGQFIAGGLQRQGHVVLAASRSDYSVYCASHGIRFFRSVDALCEEQPDVLLICSSILSTEGVVRAIPFRKLRHDTIVADVLSVKEFPRNLLLEVLPPGFGIICTHPMFGPESGKHGWGKLPFVFDKVRVAEDGDQAAKCDQFLSIFEQEGCRMVEMSCAEHDRYAAGSQFITHTIGRVLSQLNLKSTPINTKGYETLLQLTKNTVSDSFDLYYGLFMYNVNATEQLDKLEMAFEKVRQMLSGRLHDFIRKQIVERAAHVPADPSGKLANGLSSSPAARLL | 14 times | – | – | –
BdTyrAnc: non-canonical TyrA enzyme of Brachypodium distachyon, SEQ ID NO: 37 (protein, Brachypodium distachyon) MASSLVHLSSPAGGRTAAAPPSLLSRFSPNFCAFATLRPGPTRPTAATPKHARARTCAEQEQKQEVAAPCRDAYEKPAVWNTTAADSAEAAPPLRVGIIGFGNFGQFIARGIQRQGHAVLATSRSDYSAYCSAQGIRYFRSLEALCEEQPNVLLVCSSILSTEAVVRAIPFHKLRSDTIVADVLSVKQFPRNLLLEILPPEFGIVCTHPMFGPESGKHGWSTLPFVYDKVRLADKGDQKANCGQFLSIFEGEGCRMVEMSCAEHDRHAAASQFITHTIGRVLAQLNLKSTPINTKGFEALLKLTENTVSDSFDLYYGLFMYNVNATEQIEKLERAFEKVKQMLYGRLHDILRKQIVERVPI | 8 times | competitive | ~100 | 4
BdTyrA2: TyrA2 arogenate dehydrogenase of Brachypodium distachyon, SEQ ID NO: 35 (protein, Brachypodium distachyon) MSSSGRFHQPPSCRRPAALAQSLRASTTTVTCRWRQQYHHPLAAAPLRLRAVPVRATDAARQPFDHLSGAVKSEEGTHPRLKIAIVGFGNYGQFLARTMVQQGHTVLAHSRSDHSAAAATIGASFYADAHDLCECQPDVVLLSTSILSAEAVLRSLPVHRFRRSTLFADVLSVKEFPKNLLLAYLPGDFDVICTHPMFGPESARDGWAGLPFVFDEVRVGDGPARRARADAFLDVFAREGCRMVEMSCAEHDAHAAETQFLTHTVGRMLATLDLKSTPINTKGYETLLRLVDNTCSDSFDLYNGLFMYNNNATELLHRLESAMDSVKRRLFDGLHEVLRRQLFEGSPPLNRDSSFPAESSLDDGR | did not significantly increase tyrosine levels | – | – | –
